Values belong to the binder of their own block, whether it stands above or below them.
Legend:
[1] = biological target: T1, KRAS wild type peptide on HLA-A*11:01 (human); experiment: activation reporter or marker
T1 peptide: VVVGAGGVGK

[2] = biological target: T2, KRAS G12D peptide on HLA-A*11:01 (human); experiment: killing
T2 peptide: VVGADGVGK

[3] = biological target: T3, KRAS G12D peptide on HLA-A*11:01 (human); experiment: killing
T3 peptide: VVVGADGVGK

[4] = biological target: T2, KRAS G12D peptide on HLA-A*11:01; experiment: cytokine release
[5] = biological target: T3, KRAS G12D peptide on HLA-A*11:01; experiment: cytokine release
[6] = biological target: T3, KRAS G12D peptide on HLA-A*11:01; experiment: activation reporter or marker
[7] = biological target: T1, KRAS wild type peptide on HLA-A*11:01; experiment: killing
[8] = biological target: T4, KRAS wild type peptide on HLA-A*11:01 (human); experiment: killing
T4 peptide: VVGAGGVGK

[9] = biological target: KRAS G12D neoantigen endogenously presented by HLA A*11:01 on KRAS-p.G12D tumor or transfected cell lines (human); experiment: cell-based or functional assay

binding result [4]: recognises
binding result [5]: recognises
B2: PD6_KRASmut_22 (TCR, V domains shown)
Valpha: AQTVTQSQPEMSVQEAETVTLSCTYDTSESDYYLFWYKQPPSRQMILVIRQEAYKQQNATENRFSVNFQKAAKSFSLKISDSQLGDAAMYFCAYYSGGGADGLTFGKGTHLIIQP
Vbeta: SAVISQKPSRDICQRGTSLTIQCQVDSQVTMMFWYRQQPGQSLTLIATANQGSEATYESGFVIDKFPISRPNLTFSTLTVSNMSPEDSSIYLCSVTWAGGWSYGYTFGSGTRLTVV

binding result [1]: no recognition
binding result [6]: recognises
B3: EE208_KRAS_1 (TCR, V domains shown)
Valpha: GNSVTQMEGPVTLSEEAFLTINCTYTATGYPSLFWYVQYPGEGLQLLLKATKADDKGSNKGFEATYRKETTSFHLEKGSVQVSDSAVYFCALSDGAGGFKTIFGAGTRLFVKA
Vbeta: EADIYQTPRYLVIGTGKKITLECSQTMGHDKMYWYQQDPGMELHLIHYSYGVNSTEKGDLSSESTVSRIRTEHFPLTLESARPSHTSQYLCASSESLYNEQFFGPGTRLTVL

Second part, the binder before the results:

B1: EE184_KRAS_8a (TCR, V domains shown)
Valpha: AQTVTQSQPEMSVQEAETVTLSCTYDTSESDYYLFWYKQPPSRQMILVIRQEAYKQQNATENRFSVNFQKAAKSFSLKISDSQLGDAAMYFCAYKKYNDMRFGAGTRLTVKP
Vbeta: DGGITQSPKYLFRKEGQNVTLSCEQNLNHDAMYWYRQDPGQGLRLIYYSQIVNDFQKGDIAEGYSVSREKKESFPLTVTSAQKNPTAFYLCASSTGAGAFRTEAFFGQGTRLTVV
binding result [1]: no recognition
binding result [2]: recognises
binding result [3]: recognises

B4: EE209_2 TCR (TCR, V domains shown)
Valpha: ILNVEQSPQSLHVQEGDSTNFTCSFPSSNFYALHWYRWETAKSPEALFVMTLNGDEKKKGRISATLNTKEGYSYLYIKGSQPEDSATYLCAFLPGYSTLTFGKGTMLLVSP
Vbeta: DAGITQSPRYKITETGRQVTLMCHQTWSHSYMFWYRQDLGHGLRLIYYSAAADITDKGEVPDGYVVSRSKTENFPLTLESATRSQTSVYFCASSVGRGGTEAFFGQGTRLTVV
binding result [7]: no recognition
binding result [8]: no recognition
binding result [2]: recognises
binding result [3]: recognises

B5: EE209_2 TCR (SEQ ID NOs: 12 and 13; beta chain using TRBC2-201) (TCR)
TCR alpha: ILNVEQSPQSLHVQEGDSTNFTCSFPSSNFYALHWYRWETAKSPEALFVMTLNGDEKKKGRISATLNTKEGYSYLYIKGSQPEDSATYLCAFLPGYSTLTFGKGTMLLVSPDIQNPDPAVYQLRDSKSSDKSVCLFTDFDSQTNVSQSKDSDVYITDKTVLDMRSMDFKSNSAVAWSNKSDFACANAFNNSIIPEDTFFPSPESSCDVKLVEKSFETDTNLNFQNLSVIGFRILLLKVAGFNLLMTLRLWSS
TCR beta: DAGITQSPRYKITETGRQVTLMCHQTWSHSYMFWYRQDLGHGLRLIYYSAAADITDKGEVPDGYVVSRSKTENFPLTLESATRSQTSVYFCASSVGRGGTEAFFGQGTRLTVVEDLKNVFPPKVAVFEPSEAEISHTQKATLVCLATGFYPDHVELSWWVNGKEVHSGVSTDPQPLKEQPALNDSRYCLSSRLRVSATFWQNPRNHFRCQVQFYGLSENDEWTQDRAKPVTQIVSAEAWGRADCGFTSESYQQGVLSATILYEILLGKATLYAVLVSALVLMAMVKRKDSRG
CD137 upregulation [9]: 7 of 7 lines
IFNg production [9]: 5 of 7 lines
granzyme B production [9]: 6 of 7 lines
killing activity (impedance assay) [9]: 5 of 7 lines

— patent US20260232734A1 (published 2026)
